This experiment addresses recombinant human IGF-1R on I24 cells (human) (UniProt P08069). As to the kind of experiment: cellular FACS IGF-1R-ANGPT2 bridging assay: I24 cells + hIgG isotype, then 2 µg/mL hANGPT2, <ANGPT2>mIgG1-Biotin and Streptavidin-PE; negative control; untreated I24 cells (panel A): Mean 5.01.

Consider hIgG Isotype (antibody), for which the Mean (FL2-H fluorescence) worked out at 8.76.

The record behind these values is patent publication US20090162360A1.
